Assay results published in the supplement of paper PMC10567573.
± gives the standard deviation.

Assay: protein stability index of a GFP-peptide fusion (GPS, HEK-293T) (PSI 1-6); higher = more stable
[1] = treatment: DMSO, c terminus: a fixed tail appended
[2] = treatment: MLN4924 1 uM, 8 h, c terminus: a fixed tail appended
[3] = treatment: DMSO, c terminus: native
[4] = treatment: MLN4924 1 uM, 8 h, c terminus: native
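Note: 24-mer peptide tiles fused after GFP, lentivirally expressed, FACS-sorted into six equal bins by GFP/DsRed ratio, decoded by Illumina sequencing, PSI is the read-weighted mean bin number.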

| Sequence | protein stability index [1] | protein stability index [2] | protein stability index [3] | protein stability index [4] |
| --- | --- | --- | --- | --- |
| SGGELFDFLAEKESLTEDEATQFL [DAPK3] | 4.84 ± 0.19 | 4.96 ± 0.47 |  |  |
| SGISFPSVVDHPMPEERASKYENY [HESX1] | 4.25 ± 0.32 | 4.22 ± 0.3 |  |  |
| SGPQPRLPPCLLPLSPPTAPDRAT [TRIB3] | 4.48 ± 0.27 | 4.61 ± 0.28 |  |  |
| SGSQRHMVGQKDSVILSVKFSPFG [TLE6] | 2.2 ± 0.27 | 2.49 ± 0.22 |  |  |
| SHCDSPSPQEDGQIMFDVEMHTSR [BNIP3L] | 4.79 ± 0.31 | 4.8 ± 0.38 |  |  |
| SHQNLRVDDLSVEWDAMGGKVQDI [FSD1] | 4.49 ± 0.19 | 4.47 ± 0.28 |  |  |
| SHRAAGSGVSDYDYLDLDKMSLYS [TRIM9] | 3.4 ± 0.21 | 3.44 ± 0.17 |  |  |
| SIGIDNLGLKLEENLQETHSAVL [SLC35F2] |  |  | 4.34 ± 0.31 | 4.53 ± 0.19 |
| SIIILLELAILGGLVYYKFFRSH [VTI1B] |  |  | 2.78 ± 0.27 | 2.63 ± 0.45 |
| SITEMFGEFRTGKTQICHTLAVTC [RAD51] | 2.59 ± 0.33 | 2.05 ± 0.48 |  |  |
| SKIGFGILLSKEPDGVWAYNRGEH [SMAD6] | 2.43 ± 0.25 | 2.71 ± 0.15 |  |  |
| SKLKGAAVKLADFGLAIEVEGEQQ [CAMK2A] | 4.06 ± 0.11 | 4.4 ± 0.31 |  |  |
| SKQTEKDPGVQELEALIDTIQKQL [EFHC1] | 3.83 ± 0.28 | 3.86 ± 0.3 |  |  |
| SKTVTSTMLGVFREDPKTREEFLT [GCH1] | 4.12 ± 0.1 | 4.11 ± 0.24 |  |  |
| SKYADLSDAANRNHEALRQAKQEM [PRPH] | 4.77 ± 0.064 | 4.89 ± 0.14 |  |  |
| SKYCYGPQGSRSPYIPPHAALCLE [FKBP8] | 2.46 ± 0.54 | 2.74 ± 0.3 |  |  |
| SLCKVFGAHKDCQVAPLTHVFQRQ [TRIM55] | 2.41 ± 0.35 | 2.66 ± 0.2 |  |  |
| SLIGHLQTLSPDMQGAYCTFPASV [DUSP5] | 2.07 ± 0.35 | 2.2 ± 0.38 |  |  |
| SLKDHKVSFLRSGTKLIFRRRPRQ [C2CD2L] | 3.24 ± 0.49 | 3.44 ± 0.55 |  |  |
| SLSVRHRQVKHYRIFRLPNNWYYI [SLA] | 2.29 ± 0.7 | 2.58 ± 0.49 |  |  |
| SLTDDKYDVAMNRAKDLVELDPEV [GOLPH3L] | 5.37 ± 0.16 | 5.4 ± 0.26 |  |  |
| SLVAPLLLELAGEVTDTGDPIVRP [MYORG] | 3.23 ± 0.33 | 3.3 ± 0.23 |  |  |
| SLVYYGLTLSAGDLGGSIYANLAL [SLC22A15] | 3.02 ± 0.6 | 2.91 ± 0.45 |  |  |

| Sequence | protein stability index [1] | protein stability index [2] | protein stability index [3] | protein stability index [4] |
| --- | --- | --- | --- | --- |
| SMLPPVNFSIVPYEKKFDTFIPLE [SPATS1] | 2.6 ± 0.26 | 2.49 ± 0.1 |  |  |
| SNADQLMENIGAIQVLPKLSSSII [KCNAB2] | 3.21 ± 0.38 | 3.23 ± 0.29 |  |  |
| SNGSMHNYCPQQTKITSAFKYINT [EDNRA] | 2.36 ± 0.35 | 2.6 ± 0.26 |  |  |
| SNYSLPPPLPTYHVLLEGEGLGQS [TRIM29] | 3.67 ± 0.23 | 3.68 ± 0.22 |  |  |
| SPEKFQIEANFPRRVLPCIPSEEW [FAF2] | 3.75 ± 0.12 | 3.79 ± 0.29 |  |  |
| SPESSRGQCGENLAWASYDQTGKE [GLIPR2] | 4.8 ± 0.21 | 4.73 ± 0.27 |  |  |
| SPINMEDQERIKVERKRLRNRLAA [JUNB] | 4.48 ± 0.55 | 4.65 ± 0.087 |  |  |
| SPSENSKEAEILEVLRHPRDWVR [CPOX] |  |  | 4.42 ± 0.15 | 4.53 ± 0.26 |
| SPSNVQKWLLWTEHQYRLPPMGKA [SPDEF] | 2.42 ± 0.2 | 2.61 ± 0.19 |  |  |
| SPTIIFDNWIPLLWCANILGYAVS [DHCR7] | 3.36 ± 0.13 | 3.48 ± 0.42 |  |  |
| SQDERLDVLLTLKHTVKEHECKLT [IQUB] | 3.41 ± 0.3 | 3.41 ± 0.16 |  |  |
| SQFKILVSLLENNIYVHDLLTFQQ [VPS39] | 3.02 ± 0.29 | 3.21 ± 0.6 |  |  |
| SQKNEKALTNIQNCMAEKRETVLI [C8orf76] | 3.54 ± 0.29 | 3.69 ± 0.19 |  |  |
| SQLAGQVNVEMDAAPGVDLTRVLA [KRT15] | 4 ± 0.18 | 3.94 ± 0.057 |  |  |
| SQMFPSSKARTKSLLGDDVFSTMA [FBF1] | 2.89 ± 0.26 | 2.97 ± 0.21 |  |  |
| SRLMRRHKRRRRKQKVSRIERSSS [DVL3] | 4.46 ± 0.27 | 4.43 ± 0.09 |  |  |
| SRLNLTGLGYFSCHSHTVVQDYSY [CCDC3] | 2.12 ± 0.37 | 2.18 ± 0.11 |  |  |
| SRRDDLEALGHMFMYFLRGSLPWQ [CSNK1G1] | 3.48 ± 0.54 | 3.15 ± 0.86 |  |  |
| SSHHSHSYIGLPYADHNYGARPPP [KMT2E] | 3.46 ± 0.16 | 3.7 ± 0.27 |  |  |
| SSIPCSGSLDGRELSRQVRSSVEL [PPEF2] | 4.298 ± 0.036 | 4.17 ± 0.13 |  |  |
| SSLFMDTEKSGKREFDVRQTPQVN [WEE1] | 4.58 ± 0.26 | 4.71 ± 0.27 |  |  |
| SSNGNDNGNGKNGGLEHVPSSSSI [BNIP3L] | 5.2 ± 0.29 | 5.33 ± 0.17 |  |  |
| SSNKKEKKVLNHGYDDDNHDYIVR [DYRK1B] | 4.55 ± 0.22 | 4.45 ± 0.19 |  |  |

| Sequence | protein stability index [1] | protein stability index [2] | protein stability index [3] | protein stability index [4] |
| --- | --- | --- | --- | --- |
| SSVQSYPGSASLAQSRLEDPGADS [DLX1] | 5.23 ± 0.2 | 5.52 ± 0.24 |  |  |
| STARRSRAASSQRAEEEDDDIKQL [CHMP4C] | 5.59 ± 0.073 | 5.46 ± 0.25 |  |  |
| STDPNIVRKKERGREEKCVWKHGI [TAF7L] | 3.31 ± 0.37 | 3.51 ± 0.26 |  |  |
| STDTESNNEEQRSGLIYLTNHIAP [IKZF1] | 4.63 ± 0.2 | 4.81 ± 0.21 |  |  |
| STEDMERALSEYLAVFARCLAGCE [P3H4] | 3.59 ± 0.2 | 3.37 ± 0.32 |  |  |
| STLEESVVRICCIRSFGHFIARLQ [SMG5] | 2.29 ± 0.04 | 2.19 ± 0.37 |  |  |
| STPRPPEASSSPPEGSQDRNTSWG [TLE6] | 5.32 ± 0.17 | 5.291 ± 0.047 |  |  |
| SYSFQNPSSFDPSMLLQRFSVAPH [RNF180] | 2.58 ± 0.28 | 2.68 ± 0.23 |  |  |
| TAGEMVFVYENAKEGARNIRTSER [BTBD10] | 3.94 ± 0.21 | 3.98 ± 0.14 |  |  |
| TAKDNGEAEDQEEKEDAEKENIEK [SRPK2] | 5.58 ± 0.12 | 5.67 ± 0.25 |  |  |
| TAYSRLNETQPIDLSGLPLQSSKN [RNF180] | 3.76 ± 0.27 | 3.86 ± 0.25 |  |  |
| TCICYLCMFQEHKNHSTVTVEEAK [TRIM29] | 2.24 ± 0.43 | 2.67 ± 0.51 |  |  |
| TDLIWKNQNSWGTGEDVKVILKNS [LMNB1] | 3.47 ± 0.44 | 3.74 ± 0.26 |  |  |
| TETQRLGLAMALEPNTTFLRKSLK [FANCE] | 4.05 ± 0.19 | 4.14 ± 0.16 |  |  |
| TFTEHPMKYTSEKFLEICKLSGFM [TPRG1] | 2.35 ± 0.48 | 2.22 ± 0.5 |  |  |
| TGAACRLVEAVLSGEVLNGAAVVR [HDAC6] | 2.13 ± 0.35 | 2.27 ± 0.28 |  |  |
| TGASFQKAQQEFAAGVFSNPAVRT [SCAMP3] | 3.73 ± 0.16 | 3.79 ± 0.25 |  |  |
| TGGPDACLRCWDQRTIMKPLEYQF [TLE6] | 2.29 ± 0.17 | 2.74 ± 0.27 |  |  |
| TGGVTALCWDPVQRVLFSGSSDHS [WDFY2] | 2.73 ± 0.21 | 2.78 ± 0.59 |  |  |
| THVLSKEVQHLREEKSKQFLDLME [LRRC45] | 3.66 ± 0.26 | 3.81 ± 0.26 |  |  |
| TIDNDIVSMEIFFKAWLHNSGTDQ [M1AP] | 2.5 ± 0.23 | 2.36 ± 0.084 |  |  |
| TINNFSFCREEMGEVLKSSTFSSG [SPOPL] | 2.33 ± 0.21 | 2.53 ± 0.28 |  |  |
| TKVQKKSLLLKKPLRVDLILENTS [NOP53] | 2.71 ± 0.19 | 2.84 ± 0.39 |  |  |

| Sequence | protein stability index [1] | protein stability index [2] | protein stability index [3] | protein stability index [4] |
| --- | --- | --- | --- | --- |
| TLCKADLEAQVESLKEELMCLKKN [KRT36] | 3.51 ± 0.4 | 3.83 ± 0.15 |  |  |
| TLELCHDELFADLFNSNHKAGGAG [CEBPD] |  | 4.24 ± 1 |  |  |
| TLFQTESPQSGSILTEETEVKGTL [PBXIP1] | 4.92 ± 0.17 | 4.7 ± 0.25 |  |  |
| TLTVFPPEETTPSPSRESPLSAP [KLHL13] |  |  | 5.16 ± 0.15 | 5.18 ± 0.08 |
| TNDGNHPSCQETRDYAPPSRGYAY [RBMY1A1] | 4.33 ± 0.12 | 4.36 ± 0.11 |  |  |
| TNPDLYPVRRIDGLTDVSQIITVT [IQUB] | 2.86 ± 0.26 | 3.06 ± 0.26 |  |  |
| TPCGPAQACMGGRCLHMDQLQDFN [ADAMTS4] | 2.63 ± 0.25 | 2.75 ± 0.17 |  |  |
| TPKAAWIREEGRCSSSDDDTDVDM [PBXIP1] | 5.4 ± 0.32 | 5.19 ± 0.38 |  |  |
| TPLLMAARYGHLDMVEFLLEQCSA [FEM1C] | 2.28 ± 0.41 | 2.26 ± 0.24 |  |  |
| TPLLNGSSQDRMFETMAIEIEQLL [GOSR1] | 3.06 ± 0.27 | 3.28 ± 0.23 |  |  |
| TPPTTTAEIATASASASTTTTVTA [SNAP91] | 5.39 ± 0.15 | 5.3 ± 0.13 |  |  |
| TPQPTALTFAKSSWARQESLQERK [AUP1] | 4.43 ± 0.14 | 4.48 ± 0.19 |  |  |
| TQSDEENGRACEMNGEECAEDLRM [IKZF1] | 5.66 ± 0.28 | 5.66 ± 0.19 |  |  |
| TRKLSPGKKRCKDIKRLLVNFMYL [SMG5] | 2.53 ± 0.45 | 2.62 ± 0.48 |  |  |
| TRQLSEENANLQEYVEKETQEKKR [MTUS2] | 5.33 ± 0.14 | 5.56 ± 0.12 |  |  |
| TSGMGFHAPKIGSNGVEMAAKFPS [SDE2] | 3.53 ± 0.28 | 3.5 ± 0.27 |  |  |
| TSHSLPESSVPSTVGCSSQHTPDQ [PLEKHN1] | 5.36 ± 0.17 | 5.28 ± 0.16 |  |  |
| TSNGWGVTDCKHTEDVGVVCSDKR [LOXL2] | 4.57 ± 0.092 | 4.46 ± 0.41 |  |  |
| TSTVNSAREELMESRMRIESLSSQ [LMNB1] | 4.54 ± 0.15 | 4.51 ± 0.18 |  |  |
| TSYYIRYRGAVYADSGNFKRCINL [FEM1C] | 2.48 ± 0.51 | 2.33 ± 0.57 |  |  |
